# Test results reported in paper PMC3630463 (Nature communications, 2013).
# T1: rVps1 (His-Vps1; yeast dynamin homolog Vps1) (Saccharomyces cerevisiae, UniProt P21576)
# T1 sequence (P21576 1-704): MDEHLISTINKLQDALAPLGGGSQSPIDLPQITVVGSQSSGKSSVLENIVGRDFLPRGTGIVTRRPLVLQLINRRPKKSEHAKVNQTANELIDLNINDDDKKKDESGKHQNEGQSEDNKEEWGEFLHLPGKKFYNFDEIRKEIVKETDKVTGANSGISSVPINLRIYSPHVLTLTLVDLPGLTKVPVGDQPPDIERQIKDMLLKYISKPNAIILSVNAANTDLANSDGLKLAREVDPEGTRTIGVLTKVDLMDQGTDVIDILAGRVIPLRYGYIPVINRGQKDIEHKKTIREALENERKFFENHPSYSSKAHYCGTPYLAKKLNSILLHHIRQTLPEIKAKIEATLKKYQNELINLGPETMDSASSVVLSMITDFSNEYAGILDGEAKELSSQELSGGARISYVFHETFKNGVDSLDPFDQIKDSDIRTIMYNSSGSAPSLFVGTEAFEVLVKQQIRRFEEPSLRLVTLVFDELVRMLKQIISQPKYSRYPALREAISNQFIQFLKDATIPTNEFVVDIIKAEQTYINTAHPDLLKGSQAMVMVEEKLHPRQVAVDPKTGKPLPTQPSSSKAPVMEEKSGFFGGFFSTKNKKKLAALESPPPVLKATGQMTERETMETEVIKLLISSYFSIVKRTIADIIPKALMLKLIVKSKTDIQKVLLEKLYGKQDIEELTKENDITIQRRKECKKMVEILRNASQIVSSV
# T2: recombinant Vps1 (yeast, UniProt P21576 1-704)
# T2 sequence: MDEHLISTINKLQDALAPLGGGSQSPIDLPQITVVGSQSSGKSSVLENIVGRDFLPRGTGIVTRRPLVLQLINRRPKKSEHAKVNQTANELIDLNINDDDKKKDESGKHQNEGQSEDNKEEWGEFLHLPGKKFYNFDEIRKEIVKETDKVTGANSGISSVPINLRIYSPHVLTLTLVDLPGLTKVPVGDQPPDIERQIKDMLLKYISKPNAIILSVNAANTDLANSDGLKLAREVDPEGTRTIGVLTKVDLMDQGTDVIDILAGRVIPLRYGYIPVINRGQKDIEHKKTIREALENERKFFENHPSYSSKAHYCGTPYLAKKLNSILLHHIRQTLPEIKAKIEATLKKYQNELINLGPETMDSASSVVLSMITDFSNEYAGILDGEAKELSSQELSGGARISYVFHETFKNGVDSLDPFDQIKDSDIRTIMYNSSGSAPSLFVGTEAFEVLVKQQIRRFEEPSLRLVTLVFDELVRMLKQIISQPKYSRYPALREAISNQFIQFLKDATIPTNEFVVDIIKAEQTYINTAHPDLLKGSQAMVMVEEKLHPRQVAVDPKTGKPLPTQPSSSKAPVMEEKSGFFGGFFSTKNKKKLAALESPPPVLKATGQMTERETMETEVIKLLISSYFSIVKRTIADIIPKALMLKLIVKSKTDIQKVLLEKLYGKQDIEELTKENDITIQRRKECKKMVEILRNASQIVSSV
# B1: Vam3 full-length (1–252) (domain or fragment)
# chain: MSFFDIEAQSSKGNSQQEPQFSTNQKTKELSNLIETFAEQSRVLEKECTKIGSKRDSKELRYKIETELIPNCTSVRDKIESNILIHQNGKLSADFKNLKTKYQSLQQSYNQRKSLFPLKTPISPGTSKERKDIHPRTEAVRQDPESSYISIKVNEQSPLLHNEGQHQLQLQEEQEQQQQGLSQEELDFQTIIHQERSQQIGRIHTAVQEVNAIFHQLGSLVKEQGEQVTTIDENISHLHDNMQNANKQLTRA
# B2: SNARE domain of Vam3 (190–252) (domain or fragment)
# chain: TIIHQERSQQIGRIHTAVQEVNAIFHQLGSLVKEQGEQVTTIDENISHLHDNMQNANKQLTRA
# Columns and labels:
# [1] = molecular target: T1, rVps1 (His-Vps1; yeast dynamin homolog Vps1); experiment: GTPase assay, released Pi by malachite green; format: biochemical; details: read-out: % inhibition at 100 uM
# [2] = molecular target: T2, recombinant Vps1; experiment: far-Western, overlay or dot blot
Molecule,inhibition at 100 µM [1],binding result [2]
O=C(N/N=C/c1ccc(O)c(O)c1)c1cc2ccccc2cc1O [dynasore],~60%,–
B1,–,binds
B2,–,binds
